Values of other authors as cited in paper PMC12498412.

Molecular target: Barnase (Bacillus amyloliquefaciens) (UniProt P00648)
Sequence (P00648 48-157): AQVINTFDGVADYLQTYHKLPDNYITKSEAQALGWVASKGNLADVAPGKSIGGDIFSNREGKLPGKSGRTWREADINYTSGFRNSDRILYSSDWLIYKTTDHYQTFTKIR

Chain of Barstar (P11540 2-90): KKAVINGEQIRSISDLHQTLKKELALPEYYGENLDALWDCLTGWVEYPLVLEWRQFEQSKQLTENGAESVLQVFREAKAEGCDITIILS

**Q.** With Barstar (from UniProt P11540) as the substance, how does the Kd read?
**A.** 64 nM
